Data published in patent publication US20210380703A1 (RIGEL PHARMACEUTICALS, published 2021).

Tests used:
[1] = target: T1, biotinylated goat anti-human kappa light chain; assay: ELISA, positive control
T1 construct: positive control of the ELISA
Method: The binding of ACVR2A-specific monoclonal antibodies to human ACVR2A, mouse ACVR2A, biotinylated goat anti-human kappa light chain (positive control) and human Fc (negative control) were determined by ELISA.

[2] = target: T2, mouse ACVR2A (mouse, UniProt P27038 20-135, limits assumed); assay: ELISA
T2 construct: coated antigen of the initial ELISA
Summary of the method: (§1)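 mAb binding by ELISA; antigens: hu ACVR2A, mu ACVR2A; pos ctrl biotinylated goat anti-hu kappa LC; neg ctrl hu Fc.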

[3] = target: T3, human ACVR2A (human, UniProt P27037 20-135, limits assumed); assay: ELISA
T3 construct: coated antigen of the initial ELISA; also called activin receptor, type II A
Summary of the method: as §1
Note: test concentration or dose not given here.

T2 sequence (P27038 20-135 limits assumed): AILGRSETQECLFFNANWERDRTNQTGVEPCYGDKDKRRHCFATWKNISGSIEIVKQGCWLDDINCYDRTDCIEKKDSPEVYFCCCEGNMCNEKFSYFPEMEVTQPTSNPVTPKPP
T3 sequence (P27037 20-135 limits assumed): as the sequence (P27038 20-135 limits assumed) above, with R20K, I73V counted along it

Row | optical density [1] | optical density [2] | optical density [3] | Binder
1 | 3.75 OD | 3.03 OD | 3.02 OD | 367_B12 (antibody, V domains shown, Group III) VH: EVQLLESGGGLVQPGGSLRLSCAASGFTFSSYGMHWVRQAPGKGLEWVASINYNGGYKSYADSVKGRFTISRDNSKNTLYLQMNSLRAEDTAVYYCARGANWHDTHLDYWGQGTLVTVSS VL: DIQMTQSPSSLSASVGDRVTITCRASQSILSYVNWYQQKPGKAPKLVIYAATSLASGVPSRFSGSGSGTDFTLTISSLQPEDFATYYCQQSYDTPLTFGGGTKVEIK
2 | 3.46 OD | 2.45 OD | 2.59 OD | 367_D03 (antibody, V domains shown, Group III) VH: EVQLLESGGGLVQPGGSLRLSCAASGFTFDSYSMNWVRQAPGKGLEWVSSINYNGGYTGYADSVKGRFTISRDNSKNTLYLQMNSLRAEDTAVYYCARGANWHDTHLDYWGQGTLVTVSS VL: DIQMTQSPSSLSASVGDRVTITCRASQSIITYLNWYQQKPGKAPKLLIYAATSRASGVPSRFSGSGSGTDFTLTISSLQPEDFATYYCQQSYDTPLTFGGGTKVEIK
3 | 3.41 OD | 2.52 OD | 2.47 OD | 367_C07 (antibody, V domains shown, Group III) VH: EVQLLESGGGLVQPGGSLRLSCAASGFTFSSYSMNWVRQAPGKGLEWVSSINYNSGYTGYADSVKGRFTISRDNSKNTLYLQMNSLRAEDTAVYYCARGANWHDTHLDYWGQGTLVTVSS VL: DIQMTQSPSSLSASVGDRVTITCRASQSILTYVNWYQQKPGKAPKLLIYAATSRASGVPSRFSGSGSGTDFTLTISSLQPEDFATYYCQQSYNLPLTFGGGTKVEIK
4 | 3.41 OD | 2.83 OD | 2.83 OD | 368_A03 (antibody, V domains shown, Group III) VH: EVQLLESGGGLVQPGGSLRLSCAASGFTFSSYSMNWVRQAPGKGLEWVSGINYNGGYTGYADSVKGRFTISRDNSKNTLYLQMNSLRAEDTAVYYCARGANWHDTHLDYWGQGTLVTVSS VL: DIQMTQSPSSLSASVGDRVTITCRASQSIISYLNWYQQKPGKAPKLLIYAVTSRASGVPSRFSGSGSGTDFTLTISSLQPEDFATYYCQQSYENPLTFGGGTKVEIK
5 | 3.57 OD | 2.69 OD | 2.44 OD | 367_D12 (antibody, V domains shown, Group III) VH: EVQLLESGGGLVQPGGSLRLSCAASGFTFSSYSMNWVRQAPGKGLEWVSSINYNGGYTGYADSVKGRFTISRDNSKNTLYLQMNSLRAEDTAVYYCARGANWHDTHLDYWGQGTLVTVSS VL: DIQMTQSPSSLSASVGDRVTITCRASQSIVSYVNWYQQKPGKAPKLVIYAATSRASGVPSRFSGSGSGTDFTLTISSLQPEDFATYYCQQSYESPLTFGGGTKVEIK
6 | 3.36 OD | 3.04 OD | 2.98 OD | 367_G04 (antibody, V domains shown, Group III) VH: EVQLLESGGGLVQPGGSLRLSCAASGFTFSSYSMNWVRQAPGKGLEWVAGINYNSGYTSYADSVKGRFTISRDNSKNTLYLQMNSLRAEDTAVYYCARGANWHDTHLDYWGQGTLVTVSS VL: DIQMTQSPSSLSASVGDRVTITCRASQSILSYLNWYQQKPGKAPKLVIYAATSRASGVPSRFSGSGSGTDFTLTISSLQPEDFATYYCQQSYDSPLTFGGGTKVEIK
7 | 3.38 OD | 2.43 OD | 2.26 OD | 368_C08 (antibody, V domains shown, Group III) VH: EVQLLESGGGLVQPGGSLRLSCAASGFTFSDYSMNWVRQAPGKGLEWVSGINYNGGYTSYADSVKGRFTISRDNSKNTLYLQMNSLRAEDTAVYYCARGANWHDTHLDYWGQGTLVTVSS VL: DIQMTQSPSSLSASVGDRVTITCRASQSILTYVNWYQQKPGKAPKLLIYAASSLQSGVPSRFSGSGSGTDFTLTISSLQPEDFATYYCQQSYSTPLTFGGGTKVEIK
8 | 3.25 OD | 2.35 OD | 2.04 OD | 367_D06 (antibody, V domains shown, Group III) VH: EVQLLESGGGLVQPGGSLRLSCAASGFTFDSYSMNWVRQAPGKGLEWVAGINYNGGYTSYADSVKGRFTISRDNSKNTLYLQMNSLRAEDTAVYYCARGANWHDTHLDYWGQGTLVTVSS VL: DIQMTQSPSSLSASVGDRVTITCRASQSISTYLNWYQQKPGKAPKLVIYAATSLASGVPSRFSGSGSGTDFTLTISSLQPEDFATYYCQQSYNSPLTFGGGTKVEIK
9 | 3.43 OD | 2.81 OD | 2.54 OD | 368_B09 (antibody, V domains shown, Group III) VH: EVQLLESGGGLVQPGGSLRLSCAASGFTFDSYGMNWVRQAPGKGLEWVSNINYNGGYKGYADSVKGRFTISRDNSKNTLYLQMNSLRAEDTAVYYCARGANWHDTHLDYWGQGTLVTVSS VL: DIQMTQSPSSLSASVGDRVTITCRASQSILSYLNWYQQKPGKAPKLLIYAATSRHSGVPSRFSGSGSGTDFTLTISSLQPEDFATYYCQQSYDTPLTFGGGTKVEIK
10 | 3.47 OD | 2.64 OD | 2.35 OD | 367_E05 (antibody, V domains shown, Group III) VH: EVQLLESGGGLVQPGGSLRLSCAASGFTFSSYGMNWVRQAPGKGLEWVAGINYNGGYTSYADSVKGRFTISRDNSKNTLYLQMNSLRAEDTAVYYCARGANWHDTHLDYWGQGTLVTVSS VL: DIQMTQSPSSLSASVGDRVTITCRASQSILSYLNWYQQKPGKAPKLLIYAATSRHSGVPSRFSGSGSGTDFTLTISSLQPEDFATYYCQQSYDSPLTFGGGTKVEIK
11 | 3.5 OD | 2.37 OD | 2.18 OD | 367_D08 (antibody, V domains shown, Group III) VH: EVQLLESGGGLVQPGGSLRLSCAASGFTFSDYSMNWVRQAPGKGLEWVAGINYNGGYTSYADSVKGRFTISRDNSKNTLYLQMNSLRAEDTAVYYCARGANWHDTHLDYWGQGTLVTVSS VL: DIQMTQSPSSLSASVGDRVTITCRASQSILSYLNWYQQKPGKAPKLVIYAATSRHSGVPSRFSGSGSGTDFTLTISSLQPEDFATYYCQQSDDLPLTFGGGTKVEIK
12 | 3.58 OD | 2.45 OD | 2.39 OD | 368_F09 (antibody, V domains shown, Group III) VH: EVQLLESGGGLVQPGGSLRLSCAASGFTFSSYGMNWVRQAPGKGLEWVSGINYNSGYTSYADSVKGRFTISRDNSKNTLYLQMNSLRAEDTAVYYCARGANWHDTHLDYWGQGTLVTVSS VL: DIQMTQSPSSLSASVGDRVTITCRASQSILTYLNWYQQKPGKAPKLLIYAASSLQSGVPSRFSGSGSGTDFTLTISSLQPEDFATYYCQQSYETPLTFGGGTKVEIK
13 | 3.72 OD | 2.76 OD | 2.42 OD | 367_F01 (antibody, V domains shown, Group III) VH: EVQLLESGGGLVQPGGSLRLSCAASGFTFDSYSMNWVRQAPGKGLEWVSNINYNGGYKSYADSVKGRFTISRDNSKNTLYLQMNSLRAEDTAVYYCARGANWHDTHLDYWGQGTLVTVSS VL: not shown
14 | 3.39 OD | 2.61 OD | 2.53 OD | 367_C10 (antibody, V domains shown, Group III) VH: EVQLLESGGGLVQPGGSLRLSCAASGFTFDSYSMNWVRQAPGKGLEWVSGINYNGGYTSYADSVKGRFTISRDNSKNTLYLQMNSLRAEDTAVYYCARGANWHDTALDYWGQGTLVTVSS VL: DIQMTQSPSSLSASVGDRVTITCRASQSIVSYVNWYQQKPGKAPKLLIYAVTSRASGVPSRFSGSGSGTDFTLTISSLQPEDFATYYCQQSYETPLTFGGGTKVEIK
15 | 3.56 OD | 2.35 OD | 2.35 OD | 368_A04 (antibody, V domains shown, Group III) VH: EVQLLESGGGLVQPGGSLRLSCAASGFTFDDYSMNWVRQAPGKGLEWVAGINYNGGYKSYADSVKGRFTISRDNSKNTLYLQMNSLRAEDTAVYYCARGANWHDTHLDYWGQGTLVTVSS VL: DIQMTQSPSSLSASVGDRVTITCRASQSILTYLNWYQQKPGKAPKLVIYAVTSRASGVPSRFSGSGSGTDFTLTISSLQPEDFATYYCQQSYELPLTFGGGTKVEIK
16 | 3.62 OD | 1.2 OD | 1.08 OD | 367_H02 (antibody, V domains shown, Group III) VH: EVQLLESGGGLVQPGGSLRLSCAASGFTFDSYGMNWVRQAPGKGLEWVSSINYNGGYTGYADSVKGRFTISRDNSKNTLYLQMNSLRAEDTAVYYCARGANWHDTHLDYWGQGTLVTVSS VL: not shown
17 | 3.58 OD | 1.94 OD | 1.8 OD | 367_G01 (antibody, V domains shown, Group III) VH: EVQLLESGGGLVQPGGSLRLSCAASGFTFDSYGMNWVRQAPGKGLEWVASINYNSGYTGYADSVKGRFTISRDNSKNTLYLQMNSLRAEDTAVYYCARGANWHDTHLDYWGQGTLVTVSS VL: DIQMTQSPSSLSASVGDRVTITCRASQSISSYLNWYQQKPGKAPKLVIYAATSRASGVPSRFSGSGSGTDFTLTISSLQPEDFATYYCQQSYDLPLTFGGGTKVEIK
18 | 3.34 OD | 2.2 OD | 2.04 OD | 367_H03 (antibody, V domains shown, Group III) VH: EVQLLESGGGLVQPGGSLRLSCAASGFTFSSYGMNWVRQAPGKGLEWVAGINYNSGYTSYADSVKGRFTISRDNSKNTLYLQMNSLRAEDTAVYYCARGANWHDTHLDYWGQGTLVTVSS VL: DIQMTQSPSSLSASVGDRVTITCRASQSIITYVNWYQQKPGKAPKLLIYAATSLASGVPSRFSGSGSGTDFTLTISSLQPEDFATYYCQQSYDLPLTFGGGTKVEIK
19 | 3.65 OD | 1.55 OD | 1.29 OD | 368_E12 (antibody, V domains shown, Group III) VH: EVQLLESGGGLVQPGGSLRLSCAASGFTFSDYGMNWVRQAPGKGLEWVAGINYNGGYTSYADSVKGRFTISRDNSKNTLYLQMNSLRAEDTAVYYCARGANWHDTHLDYWGQGTLVTVSS VL: DIQMTQSPSSLSASVGDRVTITCRASQSIVSYVNWYQQKPGKAPKLVIYAVTSRASGVPSRFSGSGSGTDFTLTISSLQPEDFATYYCQQSYDSPLTFGGGTKVEIK
